# Measurements published in the nanobody polyreactivity screen of Harvey et al. (2022).
# Assay: yeast display, Sf9 membrane polyspecificity reagent, FACS + sequencing; frameworks hold sequencing errors
# Outline: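 In a synthetic yeast display library (Saccharomyces cerevisiae BJ5465), nanobody expression was induced with galactose for 36–48 hours. FACS gates were set low and high (top ~1%) using anti-HA fluorescence for expression and streptavidin fluorescence for binding of the Sf9 membrane reagent. Each polyreactivity label is drawn from the gate of origin.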
row,Sequence,polyreactivity (PSR sort gate)
1,QVQLVESGGGLVQAGGSLRLSCAASGRIFYINAMGWYRQAPGKERELVAAISWSGSSTYYADSVKGRFTISRDNAKNTIYLQMNSLKPEDTAVYYCATVYYDNHYSAGYDYRGQGTQVTVSS,high polyreactivity
2,QVQLVESGGGLVQAGGSLRLSCAASGRIFYIYAMGWYRQAPGKERELVAAISSGGTTNYADSVKGRFTISRDNAKNTVYLQMNSLKPEDTSVDYCNAVRGEKMGYWGQGTQVTVSS,high polyreactivity
3,QVQLVESGGGLVQAGGSLRLSCAASGRIFYKYAMGWYRQAPGKERELVAGISRRGGTTNYADSVKGRFTNSRDNAKNTVYLQMNSLKPEDTAVYYCAVRPLYDRRYTAVRRYDYWGQGTQVTVSS,high polyreactivity
4,QVQLVESGGGLVQAGGSLRLSCAASGRIFYLKVMGWYRQEPGKERELVAAITRRDVTTYADSVKGRFTISRDNAKNTVYLQMNSLKPEDTAVYYCNADSPSLSGDYWGQGTQVTVSS,low polyreactivity
5,QVQLVESGGGLVQAGGSLRLSCAASGRIFYLNVMGWYRQAPGKERELVAAITRRDVTTYADSVKGRFTISRDNAKNTVYLQMNSLKPEDTAVYYCNAVYYNWIGFDYSGQGTQVTVSS,low polyreactivity
6,QVQLVESGGGLVQAGGSLRLSCAASGRIFYLYAMGWYRQAPGKERELVAAITNSDTSTYYADSVKGRFTISRDNAKNTVYLQMNSLKPEDTAVYYCAVSTQYYYFDYYYWGQGTQVTVSS,high polyreactivity
7,QVQLVESGGGLVQAGGSLRLSCAASGRIFYLYAMGWYRQAPGKERELVAAITWSGGSTTYADSVKGRFTISRDNAKNTFYLQMNSLKPEDTAVYYCNADGWSFPSFSPMDYWGQGTQVTVSS,low polyreactivity
8,QVQLVESGGGLVQAGGSLRLSCAASGRIFYLYAMGWYRQAPGKERELVATINSGGSTKYADSVKGRFTISRDNAKNTVYLQMNSLKPEDTAVYYCNAKRWKDYYPYQSWKYGYWGQGTQVTVSS,high polyreactivity
9,QVQLVESGGGLVQAGGSLRLSCAASGRIFYNNAMGWYRQAPGKERELVAAITYSGGSTYYADSVKGRFTISRDNAKNTVYLQMNSLKPEDTAVYYCAAEYYGPYSEGGESYDYWGQGTQVTVSS,low polyreactivity
10,QVQLVESGGGLVQAGGSLRLSCAASGRIFYPNAKGWYIQAPGKETELVAVIRSRGGSTYYADSVKGRFTISRDNAKNTVYLQMNSLKPEDTAVYYCAARWVGRRTKYDYWGQGTQVTVSS,high polyreactivity
11,QVQLVESGGGLVQAGGSLRLSCAASGRIFYPNAMGWYRQAPGKERELVAAITWRGGRTYYADSVKGRFTISRDNAKNTVYLQMNSLKPEDTAVYYCNAVAPGKYNHWGQGTQVTVSS,high polyreactivity
12,QVQLVESGGGLVQAGGSLRLSCAASGRIFYPNAMGWYRQAPGKERELVAVIRSRGGSTYYADSVKGRFTISRDNAKNTVYLQMNSLKPEDTAVYYCAARWVGRRTKYDYWGQGTQVTVSS,high polyreactivity
13,QVQLVESGGGLVQAGGSLRLSCAASGRIFYPYAMGWYIQAPGKEREFVATIRARCGDSTSYADSVKGRFTISRDIAKNTVYLQMNSLKPEDTAVYYCAALFYTYRWRYYVYHMDYWGQGTQVTVSS,low polyreactivity
14,QVQLVESGGGLVQAGGSLRLSCAASGRIFYPYAMGWYRQAPGKERELVAAIRRSGVDTYYADSVKGRFTISRDNAKNTVYLQMNSLIPEDTAVYSCAADPYWFFPHYDSWGQGTQVTVSS,low polyreactivity
15,QVQLVESGGGLVQAGGSLRLSCAASGRIFYPYAMGWYRQAPGKERELVAAISFRDGSTYYADSVKGRFTISRDNAKYTVYLQLNILKPEDTAVYYCAAVGQTHPTSPLYTKYDYWGQGTQVTVSS,low polyreactivity
16,QVQLVESGGGLVQAGGSLRLSCAASGRIFYPYAMGWYRQAPGKERELVAAISRSGGSTYYADSVKGRFTISRDNAKNTVYLQMNSLKPEDTAVYYCAAEVVYFYSDAHIGYVDYEYWGQGTQVTVSS,low polyreactivity
17,QVQLVESGGGLVQAGGSLRLSCAASGRIFYPYAMGWYRQAPGKERELVAAISWNGGRTYYADSVKGRFTISRDNAKNTVYLQMNSLKPEDTAVYYCNAGGYSRVTQRFFHKYDYWGQGTQVTVSS,high polyreactivity
18,QVQLVESGGGLVQAGGSLRLSCAASGRIFYPYAMGWYRQAPGKEREVVAGITSSDDTTYYADSVKGRFTISRDNAKNTVYLQMNSLKPEDTAVYYCNTSVDRGLGYWGQGTQVTVSS,low polyreactivity
19,QVQLVESGGGLVQAGGSLRLSCAASGRIFYQNAMGWYRQAPGKERELVAAISRGDSTYYADSVRGRFTSSRDNAKNTVFLQMNSLKPEDTAVYYCAARRFSYWGKYGYWGQGTQVTVSS,high polyreactivity
20,QVQLVESGGGLVQAGGSLRLSCAASGRIFYRNAMGWYRQAPGKERELVAAISKSGGSTYYADSVKGRFTISRDNAKNTVYLQMNSLKPEDTAVYYCNARPGQSGARFGYWGQGTQVTVSS,high polyreactivity
21,QVQLVESGGGLVQAGGSLRLSCAASGRIFYRNAMGWYRQAPGKERELVAAITGSTGNTYYADSVKGRFTISRDNAKNTVYLQMNSLKPEDTAVYYCIAGLGRWWHYPATYYYYWGQGTQVTVSS,low polyreactivity
22,QVQLVESGGGLVQAGGSLRLSCAASGRIFYRNAMGWYRQAPGQERELVAGITRGGSTNYADSVKGRFTLSRDNAKNTVFLHMNSLKPEDTAVYYCAASWPSSLTYYYWGQGSQVTVSS,low polyreactivity

row,Sequence,polyreactivity (PSR sort gate)
1,QVQLVESGGGLVQAGGSLRLSCAASGRIFYRNAMGWYRQSPGKERELVAAINWSGGSTYYAYSVKGRFTISRDNAKNTVYLQMNSLKPEDTAVYYCATGYRQGEYDYWGQGTQVTLSS,low polyreactivity
2,QVQLVESGGGLVQAGGSLRLSCAASGRIFYRNVMGWYRQAPGKERELVAAISYRGGSTSYADSVKGRFTISRDNAKNTVYLPMHILKPEDTAVDYCNAARIRPAYSDREYWGQGTQVTVSS,low polyreactivity
3,QVQLVESGGGLVQAGGSLRLSCAASGRIFYRNVMGWYRQAPGKERELVAAITYRTGSTYYADSVKGRFTISRDNAKNTVYLQMNSLKPEDTAVYYCATESGLTYDYWGQGTQVTVSS,high polyreactivity
4,QVQLVESGGGLVQAGGSLRLSCAASGRIFYRYAMGWDSQAPGKERELVAAISCGGSTYYADSVKGRFTISRDNAKNTVYLQMNSLKPEDSAVYYCAATWGRGTYYLYYYWGQGTQVTVSS,high polyreactivity
5,QVQLVESGGGLVQAGGSLRLSCAASGRIFYRYAMGWYRQAPGKERELVAAITIGGRTNYADSVKGRFTISRDNAKNTVYLQMNSLKPEDTAVYYCAVVLYTRYPPRVRYYYWGQGTQVTVSS,high polyreactivity
6,QVQLVESGGGLVQAGGSLRLSCAASGRIFYRYVMGWYRQAPGKERELVAAITSSGGSTYYADSVKGRFTISRDNAKNTVYLQMNSLNPEDTAVYYCAADRYTRYRYNYWGQGTQVTVSS,high polyreactivity
7,QVQLVESGGGLVQAGGSLRLSCAASGRIFYSNAMGWYRQAPGKAWELVATISRRGGRTYSADSVKGRFTLSRDIAKNTVYLQMNSLKPEDTAVYYCNANDRNAGSSRGGRLYDSWGQGTQVTVSS,high polyreactivity
8,QVQLVESGGGLVQAGGSLRLSCAASGRIFYSNAMGWYRQAPGKEREFVAAISWSGGGTYYADSVKGRFTISRDNAKNTVYLQMNSLKPEETAVYYCAAVFGYSWAFEYDYWGQGTQVTVSS,low polyreactivity
9,QVQLVESGGGLVQAGGSLRLSCAASGRIFYSNAMGWYRQAPGKERELVAAIRWSGGRTYYADSVNGRFTISRDNAKNSVYLQMNSLKPEDTAGYYCNARGYSGVSGKYGYWGQGTQVTVSS,high polyreactivity
10,QVQLVESGGGLVQAGGSLRLSCAASGRIFYSNAMGWYRQAPGKERELVAAISRSGVRTYYADSVKGRFTISRDNAKNTVYLQMNSLKPEDTAVYYCAAVIYGTTPQDEYDYWGQGTQVTVSS,low polyreactivity
11,QVQLVESGGGLVQAGGSLRLSCAASGRIFYSNAMGWYRQAPGKERELVAVIRRTGSTYYAASVKGRFTISRDNAKNTVYLQMISQIPEDTAVYYCATSIPYGRGGNRYVYWGQGTQVTVSS,high polyreactivity
12,QVQLVESGGGLVQAGGSLRLSCAASGRIFYSNTMGWYRQAPGKERELVAAISRSGGRTYYADSVKGRFTISRDNAKNTVSLQLNSLKPEDTAVYYCNTAYCRNPYYKGYYWGQGTQVTVSS,high polyreactivity
13,QVQLVESGGGLVQAGGSLRLSCAASGRIFYSNTMGWYRQAPGKERELVARIDTGGGSTYADSVKGRFTISRDNAKNTVYLQMNSLKPEDTAVYYCNKKGRWRSWGSTSMVSMDYWGQGTQVTVSS,low polyreactivity
14,QVQLVESGGGLVQAGGSLRLSCAASGRIFYSNVMGWYRQAPGKERELVAAISGRTGGTYYADSVKGRFTISRDNAKNTVYLQMNSLKPEATAVYYCAARVIYYYGSGPYDYWGQGTQVTVSS,low polyreactivity
15,QVQLVESGGGLVQAGGSLRLSCAASGRIFYSNVMGWYRQAPGKERELVAAITSGGSTYYADSVKGRFTISRDNAKNTVYLQMNSLKPEDTAVYYCAARVAFRPRGYIRYYYWGQGTQVTVSS,high polyreactivity
16,QVQLVESGGGLVQAGGSLRLSCAASGRIFYSYAMGWYRQAPGKERELVAAIDESDGSTYYADSVKGRFTISRDNAKNTVYLQMNSLKPEDTAVYYCAADSLLVLFDYWGQGTQVTVSS,low polyreactivity
17,QVQLVESGGGLVQAGGSLRLSCAASGRIFYSYAMGWYRQAPGKERELVAAIRRGGSTNYADSVKGRFTISRDNAKKTVYLQMNSLKPEDTAVYYCAAKGYKGYFLYNYWGQGTQVTVSS,high polyreactivity
18,QVQLVESGGGLVQAGGSLRLSCAASGRIFYSYAMGWYRQAPGKERELVAAISFSVGSTYYADSVKGRFTISRDNAKYTVYLQMNSLKPEDTAVYYCAASLGFPGYEYWGQGTQVTVSS,low polyreactivity
19,QVQLVESGGGLVQAGGSLRLSCAASGRIFYSYAMGWYRQAPGKERELVAAISSAGSTYYADSVKGRFTISRDNAKNTVYLQMNSLKPEDTAVYYCAAGVTYYRYVSYVGPVPLGFDYWGQGTQVTVSS,high polyreactivity
20,QVQLVESGGGLVQAGGSLRLSCAASGRIFYSYAMGWYRQAPGKERELVAALYSDGSTDYADSVKGRFTISRDNAKNTVYLQMNSLTPEDTAVYFCAADWGWRYVLPVGWFRYGYWGQGTQVTVSS,low polyreactivity
21,QVQLVESGGGLVQAGGSLRLSCAASGRIFYSYAMGWYRQAPGKERELVASITSSGGSTYADSVKGRFTISRDNAKNTVYLQMNSLKPEDTAVYYFDYWGQGTQVTVSS,low polyreactivity
